Data reported in FireProtDB (doi:10.1006/jmbi.1998.1906).
Where “and” joins values, the source holds several entries; their conditions need not be identical. Identical values can stand only once.

B1: Lysozyme C, P61626 (parent)
chain: MKALIVLGLVLLSVTVQGKVFERCELARTLKRLGMDGYRGISLANWMCLAKWESGYNTRATNYNAGDRSTDYGIFQINSRYWCNDGKTPGAVNACHLSCSALLQDNIADAVACAKRVVRDPQGIRAWVAWRNRCQNRDVRQYVQGCGV

Variants of: B1
Settings: Homo sapiens; pH 2.51; Thermal; DSC; glycine 0.05 M; reversible: yes; structure 1LZ1; whole UniProt chain shown

Variant	Tm [°C]	unfolding enthalpy (calorimetric) [kcal/mol]	unfolding enthalpy (van 't Hoff) [kcal/mol]
V92A	43.9	65.6	69.9
V118A	43.5	61.5	70.1

Same assay, conditions: Homo sapiens; pH 2.69; Thermal; DSC; glycine 0.05 M; reversible: yes; structure 1LZ1; whole UniProt chain shown

Variant	Tm [°C]	unfolding enthalpy (calorimetric) [kcal/mol]	unfolding enthalpy (van 't Hoff) [kcal/mol]
V92A	47.5	71.5	75.6
V148A	43.8	69.9	73

Same assay, conditions: Homo sapiens; pH 2.7; 49.2 °C; Thermal; DSC; glycine 0.05 M; reversible: yes; structure 1LZ1; whole UniProt chain shown

Variant	ddG of mutation (higher = less stable) [kcal/mol]	heat capacity change of unfolding [kcal/mol/K]
V92A	0.43	1.53
V128A	-0.07	1.51
I74V	1.34	1.29
I107V	0.35	1.84
I124V	0.98	1.72
V20A	1.51	1.44
I41V	0.41	1.82
V143A	1.6	1.56
V111A	1	1.53
V118A	0.57	1.84
I77V	0.93	1.67
V139A	1.75	1.37
V148A	1.12	1.87

Same assay, conditions: Homo sapiens; pH 2.7; Thermal; DSC; glycine 0.05 M; reversible: yes; structure 1LZ1; whole UniProt chain shown

Variant	Tm	change of melting temperature, mutant - wild type (higher = more stable)	heat capacity change of unfolding [kcal/mol/K]	unfolding enthalpy (calorimetric)	unfolding enthalpy (van 't Hoff) [kcal/mol]
V92A	47.3 °C	-1.9 °C	1.53	73.7 kcal/mol	
V128A	49.5 °C	0.3 °C	1.51	80.9 kcal/mol	
I74V	42.9 °C	-6.3 °C	1.29	71.8 kcal/mol	
I107V	46.5 °C	-2.7 °C	1.84	78.5 kcal/mol	
I124V	44.5 °C and 43.6 °C	-4.7 °C and -5.6 °C	1.72	70.3 kcal/mol and 59.8 kcal/mol	66.7
V117A	44.8 °C	-4.4 °C	1.27	67 kcal/mol	
V20A	41.3 °C	-7.9 °C	1.44	65.5 kcal/mol	
I41V	47.6 °C	-1.6 °C	1.82	80.9 kcal/mol	
V143A	42.2 °C	-7 °C	1.56	78 kcal/mol	
V111A	44.8 °C and 45.2 °C	-4.4 °C and -4 °C	1.53	76.3 kcal/mol and 71.1 kcal/mol	77.3
V118A	46.6 °C	-2.6 °C	1.84	72.2 kcal/mol	
I77V	44.8 °C	-4.4 °C	1.67	71.3 kcal/mol	
V139A	39.9 °C	-9.3 °C	1.37	65.3 kcal/mol	
V148A	44.4 °C	-4.8 °C	1.87	78.2 kcal/mol	

Same assay, conditions: Homo sapiens; pH 2.85; Thermal; DSC; glycine 0.05 M; reversible: yes; structure 1LZ1; whole UniProt chain shown

Variant	Tm [°C]	unfolding enthalpy (calorimetric) [kcal/mol]	unfolding enthalpy (van 't Hoff) [kcal/mol]
V92A	50.1	74.4	80.9
V117A	48.2	67.2	70.6

Same assay, conditions: Homo sapiens; pH 3.03; Thermal; DSC; glycine 0.05 M; reversible: yes; structure 1LZ1; whole UniProt chain shown

Variant	Tm [°C]	unfolding enthalpy (calorimetric) [kcal/mol]	unfolding enthalpy (van 't Hoff) [kcal/mol]
V92A	52.8	79.2	86.4

Same assay, conditions: Homo sapiens; pH 3.16; Thermal; DSC; glycine 0.05 M; reversible: yes; structure 1LZ1; whole UniProt chain shown

Variant	Tm [°C]	unfolding enthalpy (calorimetric) [kcal/mol]	unfolding enthalpy (van 't Hoff) [kcal/mol]
V92A	54.8	82.5	86.4
V111A	52.5	81.8	86.4

Same assay, conditions: Homo sapiens; pH 2.55; Thermal; DSC; glycine 0.05 M; reversible: yes; structure 1LZ1; whole UniProt chain shown

Variant	Tm [°C]	unfolding enthalpy (calorimetric) [kcal/mol]	unfolding enthalpy (van 't Hoff) [kcal/mol]
V128A	46.8	76.8	78

Same assay, conditions: Homo sapiens; pH 2.87; Thermal; DSC; glycine 0.05 M; reversible: yes; structure 1LZ1; whole UniProt chain shown

Variant	Tm [°C]	unfolding enthalpy (calorimetric) [kcal/mol]	unfolding enthalpy (van 't Hoff) [kcal/mol]
V128A	52.5	85.9	87.6
V143A	45.9	72.2	76.3

Same assay, conditions: Homo sapiens; pH 3; Thermal; DSC; glycine 0.05 M; reversible: yes; structure 1LZ1; whole UniProt chain shown

Variant	Tm [°C]	unfolding enthalpy (calorimetric) [kcal/mol]	unfolding enthalpy (van 't Hoff) [kcal/mol]
V128A	55	89	93.1
I74V	48.2	69.4	73
I124V	49.5	70.6	75.6
I77V	50.3	74.2	76.1
V139A	47	61.5	67.5

Same assay, conditions: Homo sapiens; pH 3.13; Thermal; DSC; glycine 0.05 M; reversible: yes; structure 1LZ1; whole UniProt chain shown

Variant	Tm [°C]	unfolding enthalpy (calorimetric) [kcal/mol]	unfolding enthalpy (van 't Hoff) [kcal/mol]
V128A	57.2	93.3	93.3

Same assay, conditions: Homo sapiens; pH 2.8; Thermal; DSC; glycine 0.05 M; reversible: yes; structure 1LZ1; whole UniProt chain shown

Variant	Tm [°C]	unfolding enthalpy (calorimetric) [kcal/mol]	unfolding enthalpy (van 't Hoff) [kcal/mol]
I74V	45.3	66.7	71.1

Same assay, conditions: Homo sapiens; pH 3.1; Thermal; DSC; glycine 0.05 M; reversible: yes; structure 1LZ1; whole UniProt chain shown

Variant	Tm [°C]	unfolding enthalpy (calorimetric) [kcal/mol]	unfolding enthalpy (van 't Hoff) [kcal/mol]
I74V	50.5	74.4	78.2
I107V	53.8	87.3	88.3
I124V	51.3	73.7	78
V117A	52.6	70.6	73.7
V20A	48.3	65.1	70.6
I77V	52	75.4	78.7

Same assay, conditions: Homo sapiens; pH 2.49; Thermal; DSC; glycine 0.05 M; reversible: yes; structure 1LZ1; whole UniProt chain shown

Variant	Tm [°C]	unfolding enthalpy (calorimetric) [kcal/mol]	unfolding enthalpy (van 't Hoff) [kcal/mol]
I107V	42.5	66	72

Same assay, conditions: Homo sapiens; pH 2.66; Thermal; DSC; glycine 0.05 M; reversible: yes; structure 1LZ1; whole UniProt chain shown

Variant	Tm [°C]	unfolding enthalpy (calorimetric) [kcal/mol]	unfolding enthalpy (van 't Hoff) [kcal/mol]
I107V	45.5	71.8	76.6
I41V	46.7	76.3	80.4

Same assay, conditions: Homo sapiens; pH 2.78; Thermal; DSC; glycine 0.05 M; reversible: yes; structure 1LZ1; whole UniProt chain shown

Variant	Tm [°C]	unfolding enthalpy (calorimetric) [kcal/mol]	unfolding enthalpy (van 't Hoff) [kcal/mol]
I107V	48.4	77.3	82.3
I41V	49.6	83.5	85.9

Same assay, conditions: Homo sapiens; pH 2.54; Thermal; DSC; glycine 0.05 M; reversible: yes; structure 1LZ1; whole UniProt chain shown

Variant	Tm [°C]	unfolding enthalpy (calorimetric) [kcal/mol]	unfolding enthalpy (van 't Hoff) [kcal/mol]
V117A	41.4	56	59.6

Same assay, conditions: Homo sapiens; pH 2.72; Thermal; DSC; glycine 0.05 M; reversible: yes; structure 1LZ1; whole UniProt chain shown

Variant	Tm [°C]	unfolding enthalpy (calorimetric) [kcal/mol]	unfolding enthalpy (van 't Hoff) [kcal/mol]
V117A	45.3	62.2	65.8
V143A	42.8	67.2	70.6
V118A	46.8	68.9	73.4
V139A	40.3	53.6	56.9

Same assay, conditions: Homo sapiens; pH 3.02; Thermal; DSC; glycine 0.05 M; reversible: yes; structure 1LZ1; whole UniProt chain shown

Variant	Tm [°C]	unfolding enthalpy (calorimetric) [kcal/mol]	unfolding enthalpy (van 't Hoff) [kcal/mol]
V117A	51	68.9	72.2
V20A	47.3	62	67.5
V143A	47.9	76.3	78
V111A	50.1	77.5	83
V118A	52	77.8	81.6

Same assay, conditions: Homo sapiens; pH 2.71; Thermal; DSC; glycine 0.05 M; reversible: yes; structure 1LZ1; whole UniProt chain shown

Variant	Tm [°C]	unfolding enthalpy (calorimetric) [kcal/mol]	unfolding enthalpy (van 't Hoff) [kcal/mol]
V20A	41.4	54.5	60.3

Same assay, conditions: Homo sapiens; pH 2.96; Thermal; DSC; glycine 0.05 M; reversible: yes; structure 1LZ1; whole UniProt chain shown

Variant	Tm [°C]	unfolding enthalpy (calorimetric) [kcal/mol]	unfolding enthalpy (van 't Hoff) [kcal/mol]
I41V	52.3	85.4	89.2

Same assay, conditions: Homo sapiens; pH 3.09; Thermal; DSC; glycine 0.05 M; reversible: yes; structure 1LZ1; whole UniProt chain shown

Variant	Tm [°C]	unfolding enthalpy (calorimetric) [kcal/mol]	unfolding enthalpy (van 't Hoff) [kcal/mol]
I41V	55	91.1	95
V148A	52.5	84.2	90.2

Same assay, conditions: Homo sapiens; pH 3.17; Thermal; DSC; glycine 0.05 M; reversible: yes; structure 1LZ1; whole UniProt chain shown

Variant	Tm [°C]	unfolding enthalpy (calorimetric) [kcal/mol]	unfolding enthalpy (van 't Hoff) [kcal/mol]
V143A	50.8	81.1	82.8

Same assay, conditions: Homo sapiens; pH 2.5; Thermal; DSC; glycine 0.05 M; reversible: yes; structure 1LZ1; whole UniProt chain shown

Variant	Tm [°C]	unfolding enthalpy (calorimetric) [kcal/mol]	unfolding enthalpy (van 't Hoff) [kcal/mol]
V111A	41.2	64.1	71.1
V148A	40.4	61	67.7

Same assay, conditions: Homo sapiens; pH 2.9; Thermal; DSC; glycine 0.05 M; reversible: yes; structure 1LZ1; whole UniProt chain shown

Variant	Tm [°C]	unfolding enthalpy (calorimetric) [kcal/mol]	unfolding enthalpy (van 't Hoff) [kcal/mol]
V118A	49.9	72.5	79.2

Same assay, conditions: Homo sapiens; pH 3.15; Thermal; DSC; glycine 0.05 M; reversible: yes; structure 1LZ1; whole UniProt chain shown

Variant	Tm [°C]	unfolding enthalpy (calorimetric) [kcal/mol]	unfolding enthalpy (van 't Hoff) [kcal/mol]
V118A	54.4	81.8	84.7

Same assay, conditions: Homo sapiens; pH 2.68; Thermal; DSC; glycine 0.05 M; reversible: yes; structure 1LZ1; whole UniProt chain shown

Variant	Tm [°C]	unfolding enthalpy (calorimetric) [kcal/mol]	unfolding enthalpy (van 't Hoff) [kcal/mol]
I77V	44.3	62.9	67

Same assay, conditions: Homo sapiens; pH 2.81; Thermal; DSC; glycine 0.05 M; reversible: yes; structure 1LZ1; whole UniProt chain shown

Variant	Tm [°C]	change of melting temperature, mutant - wild type (higher = more stable) [°C]	unfolding enthalpy (calorimetric) [kcal/mol]	unfolding enthalpy (van 't Hoff) [kcal/mol]
I77V	46.9	-5.1	67.5	71.1

Same assay, conditions: Homo sapiens; pH 2.86; Thermal; DSC; glycine 0.05 M; reversible: yes; structure 1LZ1; whole UniProt chain shown

Variant	Tm [°C]	unfolding enthalpy (calorimetric) [kcal/mol]	unfolding enthalpy (van 't Hoff) [kcal/mol]
V139A	43.6	57.9	62.7

Same assay, conditions: Homo sapiens; pH 3.14; Thermal; DSC; glycine 0.05 M; reversible: yes; structure 1LZ1; whole UniProt chain shown

Variant	Tm [°C]	change of melting temperature, mutant - wild type (higher = more stable) [°C]	unfolding enthalpy (calorimetric) [kcal/mol]	unfolding enthalpy (van 't Hoff) [kcal/mol]
V139A	50.1	-7.7	67.2	72.5

Same assay, conditions: Homo sapiens; pH 2.82; Thermal; DSC; glycine 0.05 M; reversible: yes; structure 1LZ1; whole UniProt chain shown

Variant	Tm [°C]	unfolding enthalpy (calorimetric) [kcal/mol]	unfolding enthalpy (van 't Hoff) [kcal/mol]
V148A	47	73	79.2

Same assay, conditions: Homo sapiens; pH 2.97; Thermal; DSC; glycine 0.05 M; reversible: yes; structure 1LZ1; whole UniProt chain shown

Variant	Tm [°C]	unfolding enthalpy (calorimetric) [kcal/mol]	unfolding enthalpy (van 't Hoff) [kcal/mol]
V148A	49.9	80.1	86.1
